Experimental data: patent publication US20210322524A1 (CASE WESTERN RESERVE UNIVERSITY, published 2021)
Substitutions are numbered along the chain they refer to. Names may count otherwise. Where no end group is shown, it is not given here.

B1: ATAD3A (endogenous, human cells and tissue) (other, UniProt Q9NVI7 2-586, looked up)
chain: SWLFGINKGPKGEGAGPPPPLPPAQPGAEGGGDRGLGDRPAPKDKWSNFDPTGLERAAKAARELEHSRYAKDALNLAQMQEQTLQLEQQSKLKEYEAAVEQLKSEQIRAQAEERRKTLSEETRQHQARAQYQDKLARQRYEDQLKQQQLLNEENLRKQEESVQKQEAMRRATVEREMELRHKNEMLRVEAEARARAKAERENADIIREQIRLKAAEHRQTVLESIRTAGTLFGEGFRAFVTDWDKVTATVAGLTLLAVGVYSAKNATLVAGRFIEARLGKPSLVRETSRITVLEALRHPIQVSRRLLSRPQDALEGVVLSPSLEARVRDIAIATRNTKKNRSLYRNILMYGPPGTGKTLFAKKLALHSGMDYAIMTGGDVAPMGREGVTAMHKLFDWANTSRRGLLLFVDEADAFLRKRATEKISEDLRATLNAFLYRTGQHSNKFMLVLASNQPEQFDWAINDRINEMVHFDLPGQEERERLVRMYFDKYVLKPATEGKQRLKLAQFDYGRKCSEVARLTEGMSGREIAQLAVSWQATAYASEDGVLTEAMMDTRVQDAVQQHQQKMCWLKAEGPGRGDEPSPS
notes: Endogenous protein in lysates
B2: ATAD3A (endogenous, mouse cells and mouse striatum) (other, UniProt Q925I1 2-591, looked up)
chain: SWLFGIKGPKGEGTGPPLPLPPAQPGAEGGGDRGAGDRPSPKDKWSNFDPTGLERAAKAARELEHSRHAKEALSLAQMQEQTLQLEQQSKLKEYEAAVEQLKSEQIRVQAEERRKTLTEETRQHQARAQYQDKLARQRYEDQLKQQQLLNEENLRKQEESVQKQEAIRRATVEREMELRHKNEMLRVEAEARARAKADRENADIIREQIRLKAAEHRQTILESIRTAGTLLGEGFRAFVTDWDKVTATVAGLTLLAVGVYSAKNATSVAGRYIEARLGKPSLVRETSRISVLEALRHPIQVSRRLVSRPQDALEGVILSPSLEARVRDIAIATRNTKKNKSLYRNVLMYGPPGTGKTLFAKKLALHSGMDYAIMTGGDVAPMGREGVTAMHKVFDWASTSRRGLLLFVDEADAFLRKRATEKISEDLRATLNAFLHRTGQHSSKFMLVLASNQPEQFDWAINDRIDEMVCFALPQREERERLVRMYFDKYVLKPATEGKQRLKVAQFDYGKKCSEVAQLTEGMSGREIAQLAVAWQAMAYSSEDGVLTEAMMDARVQDAVQQHQQKMQWLKVERPDSQTNKPPHPSLLSC
notes: Endogenous protein in lysates; also called endogenous ATAD3A
B3: Myc-tagged ATAD3A (other, human, UniProt Q9NVI7 1-586, looked up)
chain: MSWLFGINKGPKGEGAGPPPPLPPAQPGAEGGGDRGLGDRPAPKDKWSNFDPTGLERAAKAARELEHSRYAKDALNLAQMQEQTLQLEQQSKLKEYEAAVEQLKSEQIRAQAEERRKTLSEETRQHQARAQYQDKLARQRYEDQLKQQQLLNEENLRKQEESVQKQEAMRRATVEREMELRHKNEMLRVEAEARARAKAERENADIIREQIRLKAAEHRQTVLESIRTAGTLFGEGFRAFVTDWDKVTATVAGLTLLAVGVYSAKNATLVAGRFIEARLGKPSLVRETSRITVLEALRHPIQVSRRLLSRPQDALEGVVLSPSLEARVRDIAIATRNTKKNRSLYRNILMYGPPGTGKTLFAKKLALHSGMDYAIMTGGDVAPMGREGVTAMHKLFDWANTSRRGLLLFVDEADAFLRKRATEKISEDLRATLNAFLYRTGQHSNKFMLVLASNQPEQFDWAINDRINEMVHFDLPGQEERERLVRMYFDKYVLKPATEGKQRLKLAQFDYGRKCSEVARLTEGMSGREIAQLAVSWQATAYASEDGVLTEAMMDTRVQDAVQQHQQKMCWLKAEGPGRGDEPSPS
notes: also called Myc-ATAD3A; ATAD3A-WT (heterodimer partner); not shown: Myc tag (pCMV-Myc vector)
B4: ATAD3A-Flag protein (human ATAD3A wildtype, Flag-tagged) (other, UniProt Q9NVI7 1-586, looked up)
chain: B3 chain
notes: Made cell-free (TNT system) from pcDNA3.1(+)-ATAD3A-Flag for the in vitro assays, or expressed in HEK293 cells; the same construct is used for both here; also called ATAD3A WT; flag-tagged ATAD3A; not shown: Flag tag
B5: ATAD3A K135E (Flag-tagged) (other, human, UniProt Q9NVI7 1-586, looked up)
chain: B3 chain with K135E
notes: Expressed in HEK293 cells; also called K135E mutant; acetyl-deficient mutant K135E; not shown: Flag tag
B6: ATAD3A K135R (Flag-tagged) (other, human, UniProt Q9NVI7 1-586, looked up)
chain: B3 chain with K135R
notes: Expressed in HEK293 cells; also called K135R mutant; acetyl-deficient mutant K135R; not shown: Flag tag
B7: ATAD3A K135Q (Flag-tagged) (other, human, UniProt Q9NVI7 1-586, looked up)
chain: B3 chain with K135Q
notes: Expressed in HEK293 cells; also called K135Q mutant; acetyl-mimetic ATAD3A K135Q mutant; not shown: Flag tag

What was measured:
[1] = biological target: the molecule itself; experiment: self-association; western blot under non-reducing conditions
[2] = biological target: T1, Drp1 (endogenous, human cells and tissue) (human, UniProt O00429 1-736, limits assumed); experiment: anti-Drp1 affinity purification and tandem mass spectrometry, neurons from HD patient iPS cells
T1 construct: Endogenous protein in lysates; also called Dynamin-related protein 1
T1 sequence (O00429 whole entry): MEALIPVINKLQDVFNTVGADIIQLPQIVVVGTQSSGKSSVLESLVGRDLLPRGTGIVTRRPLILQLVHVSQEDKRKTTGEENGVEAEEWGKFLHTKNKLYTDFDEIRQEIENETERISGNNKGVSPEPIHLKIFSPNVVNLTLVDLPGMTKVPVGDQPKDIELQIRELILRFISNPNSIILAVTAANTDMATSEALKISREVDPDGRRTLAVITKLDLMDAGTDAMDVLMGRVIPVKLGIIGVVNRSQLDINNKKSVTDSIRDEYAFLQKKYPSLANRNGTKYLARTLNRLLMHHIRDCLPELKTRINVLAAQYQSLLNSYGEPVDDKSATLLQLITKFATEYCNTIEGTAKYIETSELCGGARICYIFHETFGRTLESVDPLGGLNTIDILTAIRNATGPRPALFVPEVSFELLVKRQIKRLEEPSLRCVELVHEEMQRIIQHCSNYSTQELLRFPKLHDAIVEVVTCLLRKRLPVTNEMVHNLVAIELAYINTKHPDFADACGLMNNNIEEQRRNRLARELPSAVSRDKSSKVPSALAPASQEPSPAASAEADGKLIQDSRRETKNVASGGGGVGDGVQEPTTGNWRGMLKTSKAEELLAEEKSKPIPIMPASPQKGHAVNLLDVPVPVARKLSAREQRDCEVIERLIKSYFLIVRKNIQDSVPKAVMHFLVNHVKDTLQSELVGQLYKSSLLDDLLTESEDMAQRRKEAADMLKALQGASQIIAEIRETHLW

[3] = biological target: B4; experiment: co-IP
[4] = biological target: the molecule itself; experiment: self-association; western blot with or without β-ME, HEK293 cells
[5] = biological target: T1, Drp1 (endogenous, human cells and …); experiment: IP of total lysates of transfected HEK293 cells
Myc-tagged ATAD3A = biological target: B3; experiment: anti-Flag IP, anti-Myc western blot
[6] = biological target: B4; experiment: biotin-DA1 (10 µM) with purified protein, streptavidin beads, western blot
[7] = biological target: T2, VDAC (OMM protein, endogenous in HD striatal cells) (mouse, UniProt Q3U6K8 2-283); experiment: biotin-DA1 with total lysates of HD striatal cells, streptavidin beads, western blot
T2 construct: also called voltage-dependent anion channel

[8] = biological target: T3, Drp1 (endogenous, mouse striatal cells and mouse striatum) (mouse, UniProt Q8K1M6 1-736, limits assumed); experiment: as above
T3 construct: Endogenous protein in lysates; also called Dynamin-related protein 1
T3 sequence (Q8K1M6 whole entry): as the sequence (O00429 whole entry) above, with I57V, Q72P, I134V, V528G, S548P, S563N, A571P, G573A, V577I, V581G counted along it

[9] = biological target: ClpP (mitochondrial matrix protein, endogenous in HD striatal cells) (mouse, UniProt O88696 53-272); experiment: as above
ClpP (mitochondrial matrix protein, endogenous in HD striatal cells), sequence (O88696 53-272 limits assumed): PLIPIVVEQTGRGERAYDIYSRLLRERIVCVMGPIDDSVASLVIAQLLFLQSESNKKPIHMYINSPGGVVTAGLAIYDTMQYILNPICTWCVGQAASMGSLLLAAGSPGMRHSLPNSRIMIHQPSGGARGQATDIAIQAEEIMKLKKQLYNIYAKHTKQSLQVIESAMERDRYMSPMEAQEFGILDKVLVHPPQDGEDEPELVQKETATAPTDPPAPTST

[10] = biological target: T4, GST-Drp1 recombinant protein (UniProt O00429-3 1-710, limits assumed); experiment: biotin-DA1 with purified protein, streptavidin beads, western blot
T4 construct: Bought (Abnova); also called Dynamin-related protein 1; not shown: GST tag
T4 sequence (O00429 other isoform, or with tags, fused parts or gaps limits assumed): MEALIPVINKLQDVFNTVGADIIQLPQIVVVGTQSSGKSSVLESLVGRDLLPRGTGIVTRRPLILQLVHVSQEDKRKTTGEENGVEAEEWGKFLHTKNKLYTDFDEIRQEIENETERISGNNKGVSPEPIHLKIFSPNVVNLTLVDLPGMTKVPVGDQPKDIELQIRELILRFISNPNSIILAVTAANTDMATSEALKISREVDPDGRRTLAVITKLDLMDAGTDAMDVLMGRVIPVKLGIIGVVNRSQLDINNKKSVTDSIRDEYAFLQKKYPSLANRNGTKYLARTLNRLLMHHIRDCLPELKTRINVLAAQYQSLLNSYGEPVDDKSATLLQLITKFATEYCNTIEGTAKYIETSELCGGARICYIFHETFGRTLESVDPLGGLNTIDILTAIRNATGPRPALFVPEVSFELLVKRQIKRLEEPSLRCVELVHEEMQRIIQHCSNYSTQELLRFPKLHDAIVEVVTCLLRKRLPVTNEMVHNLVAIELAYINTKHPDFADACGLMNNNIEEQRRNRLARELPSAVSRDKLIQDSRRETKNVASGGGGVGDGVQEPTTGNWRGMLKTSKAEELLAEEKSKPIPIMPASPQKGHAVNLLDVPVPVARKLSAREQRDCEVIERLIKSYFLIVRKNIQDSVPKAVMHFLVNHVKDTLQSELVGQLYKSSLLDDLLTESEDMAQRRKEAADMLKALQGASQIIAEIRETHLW

[11] = biological target: B2; experiment: biotin-DA1 (10 µM) with total lysates of HD striatal cells, streptavidin beads, western blot

## B1
[1]
  binding result: binds
[2]
  binding result: binds

## B2
[1]
  binding result: binds

## B3
[3]
  binding result: binds

## B4
[4]
  binding result: binds

## B5
[5]
  binding result: binds
[4]
  binding result: binds
Myc-tagged ATAD3A
  binding result: binds

## B6
[5]
  binding result: binds
[4]
  binding result: binds

## B7
[5]
  binding result: no binding
[4]
  binding result: binds
Myc-tagged ATAD3A
  binding result: binds

## YGRKKRRQRRRGGEDKRKT (also: biotin, position not given here, also called biotin-DA1) [Biotin-conjugated DA1]
[6]
  binding result: binds
[7]
  binding result: no binding (tested: 10 µM)
[8]
  binding result: no binding (tested: 10 µM)
[9]
  binding result: no binding (tested: 10 µM)
[10]
  binding result: no binding (tested: 10 µM)
[11]
  binding result: binds
